Data from patent US20150125479A1.

Target: RSV fusion (F) glycoprotein (respiratory syncytial virus) (UniProt P12568)
Experiment: SPR (Biacore); the partner is not named in the row, RSV F protein is taken from the legend of FIG. 4

Substance: NUMAX™ (motavizumab), MEDI-524 Mab (antibody)
- Kd: 4 pM
